{"source": "patent US20260117212", "about": "“OPTIMIZED ENGINEERED MEGANUCLEASES HAVING SPECIFICITY FOR THE HUMAN T CELL RECEPTOR ALPHA CONSTANT REGION GENE” (Precision BioSciences, Inc., published 2026)", "binders": {"B1": {"name": "TRC 1-2 recognition sequence (dsDNA)", "DNA 1": "TGGCCTGGAGCAACAAATCTGA", "DNA 2": "TCAGATTTGTTGCTCCAGGCCA"}}, "key": {"[1]": {"target": "T1, TRC 1-2L.2307 meganuclease (synthetic construct)", "T1 chain": "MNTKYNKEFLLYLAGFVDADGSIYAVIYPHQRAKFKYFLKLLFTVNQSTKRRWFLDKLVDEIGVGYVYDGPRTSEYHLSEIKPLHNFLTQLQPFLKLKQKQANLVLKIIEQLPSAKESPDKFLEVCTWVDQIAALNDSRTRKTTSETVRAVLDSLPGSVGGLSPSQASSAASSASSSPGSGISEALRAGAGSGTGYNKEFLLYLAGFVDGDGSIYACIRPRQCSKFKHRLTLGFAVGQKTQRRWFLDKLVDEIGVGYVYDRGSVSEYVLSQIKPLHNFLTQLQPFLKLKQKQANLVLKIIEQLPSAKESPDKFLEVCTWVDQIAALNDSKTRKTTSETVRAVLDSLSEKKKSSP", "test": "cell_activity; CD3 knockout in primary human T cells; EC90 0.354 ug", "conditions": "tags: N-terminal SV40 NLS (mRNA delivered)", "description": "(§1) In this study, an apheresis sample was drawn from a healthy, informed, and compensated donor, and the T cells were enriched using the CD3 positive selection kit II in accord with the manufacturer's instructions (Stem Cell Technologies). T cells were prepared for editing by stimulating with ImmunoCult anti-CD3/CD28/CD2 (Stem Cell Technologies) for three days in Xuri medium (GE Healthcare) supplemented with fetal bovine serum to 5% (Gemini Bio) and recombinant human IL-2 to 10 ng/ml (Gibco). Stimulated T cells were harvested and counted (Countess II, ThermoFisher) before electroporation was carried out on the Lonza 4-D NucleoFector using a titrated range of mRNA encoding TRC 1-2L.1592 or TRC 1-2L.2307. The concentrations used for this study were 2, 1, 0.5, 0.25, 0.125, and 0.0625 μg of RNA per 1×10⁶ stimulated T cells. Cells were subsequently cultured as above with IL-2 supplemented to 30 ng/ml.\n(§2) Using cell counts and frequency of TRAC-edited CAR+ events, the number of CAR T cells produced using each TRC1-2 variant were calculated and plotted in FIG. 7. GraphPad Prism was used to calculate EC50 and EC90 values for TRC 1-2L.1592 (FIG. 7A), and TRC 1-2L.2307 (FIG. 7B)."}, "[2]": {"target": "T2, TRC 1-2L.1592 meganuclease (synthetic construct)", "T2 chain": "T1 chain with A19G, Y37H, N46S, G70L, H77R, C223G, Q271E", "test": "cell_activity; CD3 knockout in primary human T cells; EC90 0.545 ug", "description": "as §1, §2"}}, "note": "Numbering of substitutions follows the chain as printed."}
{"binder": "B1", "values": [{"measurement": "EC50", "setting": "[1]", "value": 0.179, "unit": "ug mRNA per 1e6 cells"}, {"measurement": "EC50", "setting": "[2]", "value": 0.372, "unit": "ug mRNA per 1e6 cells"}]}
